Laboratory results: patent CN116710484A (MYLINGENE INC, dated 2023)

Legend:
[1] = biological target: T1, human recombinant WARS1 protein (tryptophanyl-tRNA synthetase 1) (human, UniProt P23381 1-471, limits assumed); test: SPR, Biacore T200, CM5 chip
T1 construct: Recombinant protein; also called 人WARS1; 人重组蛋白
T1 sequence (looked up): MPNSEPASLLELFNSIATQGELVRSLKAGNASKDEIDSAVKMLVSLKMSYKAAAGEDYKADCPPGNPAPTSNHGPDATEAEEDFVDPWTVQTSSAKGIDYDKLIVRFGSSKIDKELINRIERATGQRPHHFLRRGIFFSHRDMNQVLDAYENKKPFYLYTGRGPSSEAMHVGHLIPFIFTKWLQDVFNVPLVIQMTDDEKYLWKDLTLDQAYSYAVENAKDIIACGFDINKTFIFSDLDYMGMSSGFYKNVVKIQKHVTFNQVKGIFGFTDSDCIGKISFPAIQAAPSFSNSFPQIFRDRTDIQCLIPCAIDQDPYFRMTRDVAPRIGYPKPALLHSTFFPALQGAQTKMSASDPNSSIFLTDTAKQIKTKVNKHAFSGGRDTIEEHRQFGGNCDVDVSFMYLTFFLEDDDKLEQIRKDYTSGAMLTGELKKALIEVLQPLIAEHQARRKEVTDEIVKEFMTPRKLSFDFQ

[2] = biological target: T2, mouse recombinant WARS1 protein (mouse, UniProt P32921 1-481, limits assumed); test: SPR, Biacore T200, CM5 chip
T2 construct: Recombinant protein; also called 小鼠WARS1; 小鼠重组蛋白
T2 sequence (looked up): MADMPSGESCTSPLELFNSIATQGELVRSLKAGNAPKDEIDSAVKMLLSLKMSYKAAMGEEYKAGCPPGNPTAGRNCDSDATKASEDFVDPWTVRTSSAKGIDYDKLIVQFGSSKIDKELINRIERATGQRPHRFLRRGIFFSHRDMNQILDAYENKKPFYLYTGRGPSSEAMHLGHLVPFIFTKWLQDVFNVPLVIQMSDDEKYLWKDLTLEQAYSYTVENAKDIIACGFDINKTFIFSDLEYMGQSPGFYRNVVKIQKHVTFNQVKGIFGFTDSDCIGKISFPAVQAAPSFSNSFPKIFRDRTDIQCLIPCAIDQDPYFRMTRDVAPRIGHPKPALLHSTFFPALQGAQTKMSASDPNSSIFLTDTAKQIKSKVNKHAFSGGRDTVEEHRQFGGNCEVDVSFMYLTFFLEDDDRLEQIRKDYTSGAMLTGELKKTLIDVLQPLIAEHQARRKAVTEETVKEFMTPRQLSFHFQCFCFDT

B1: GKB101 (antibody, V domains shown)
VH: EVQLLESGGGLVQPGGSLRLSCAASGFTFSSYDMSWVRQAPGKGLEWVSAISSGGSSIYYADSVKGRFTISRDNSKNTLYLQMNSLRAEDTAVYYCARDVAWDMLGDFDYWGQGTLVTVSS
VL: QSVLTQPPSASGTPGQRVTISCTGSSSNIGSNYVYWYQQLPGTAPKLLIYANSHRPSGVPDRFSGSKSGTSASLAISGLRSEDEADYYCGAWDDSLSAYVFGGGTKLTV
notes: also called WARS1特异性抗体; 抗WARS1抗体
A Kd [1] of about 0.2 nM and a Kd [2] of about 3.76 nM were found for B1 in this work.
